Test results published in patent US20220235136A1 (YALE UNIVERSITY, published 2022).

T1: mouse CD93 on transfected HEK293T cells (mouse, UniProt O89103 23-644)
T1 construct: whole, on cells; also called mCD93
T1 sequence (looked up): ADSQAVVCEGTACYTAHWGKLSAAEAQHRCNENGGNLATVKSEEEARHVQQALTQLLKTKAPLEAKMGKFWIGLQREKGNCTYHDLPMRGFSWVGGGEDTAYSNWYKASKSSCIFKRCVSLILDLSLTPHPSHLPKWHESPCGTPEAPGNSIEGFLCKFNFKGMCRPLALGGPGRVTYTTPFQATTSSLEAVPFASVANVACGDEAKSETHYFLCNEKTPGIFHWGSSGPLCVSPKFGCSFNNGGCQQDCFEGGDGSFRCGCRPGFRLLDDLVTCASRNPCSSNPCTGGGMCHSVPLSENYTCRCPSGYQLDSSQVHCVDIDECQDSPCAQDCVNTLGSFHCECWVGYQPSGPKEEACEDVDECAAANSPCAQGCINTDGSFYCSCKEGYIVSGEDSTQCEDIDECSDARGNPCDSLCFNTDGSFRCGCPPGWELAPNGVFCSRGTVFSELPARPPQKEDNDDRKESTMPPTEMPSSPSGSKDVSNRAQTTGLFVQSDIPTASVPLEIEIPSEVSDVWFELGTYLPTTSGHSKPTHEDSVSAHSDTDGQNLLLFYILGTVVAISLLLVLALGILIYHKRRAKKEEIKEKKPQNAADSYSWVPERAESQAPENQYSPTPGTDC

B1: Mouse IGFBP7 (Fc-tag), Sino Biological (Fc fusion, UniProt Q61581 26-281, looked up)
chain: SSSDACGPCVPASCPALPRLGCPLGETRDACGCCPVCARGEGEPCGGGAAGRGHCAPGMECVKSRKRRKGKAGAAAGGPATLAVCVCKSRYPVCGSNGITYPSGCQLRAASLRAESRGEKAITQVSKGTCEQGPSIVTPPKDIWNVTGAKVFLSCEVIGIPTPVLIWNKVKRDHSGVQRTELLPGDRENLAIQTRGGPEKHEVTGWVLVSPLSKEDAGEYECHASNSQGQASAAAKITVVDALHEIPLKKGEGAQL
notes: also called mouse IGFBP7-Ig; not shown: Fc tag
B2: IGFBP7 protein (R&D Systems), labelled with a His-Tag Labeling Kit for MST (ligand)
chain: SSSDTCGPCEPASCPPLPPLGCLLGETRDACGCCPMCARGEGEPCGGGGAGRGYCAPGMECVKSRKRRKGKAGAAAGGPGVSGVCVCKSRYPVCGSDGTTYPSGCQLRAASQRAESRGEKAITQVSKGTCEQGPSIVTPPKDIWNVTGAQVYLSCEVIGIPTPVLIWNKVKRGHYGVQRTELLPGDRDNLAIQTRGGPEKHEVTGWVLVSPLSKEDAGEYECHASNSQGQASASAKITVVDALHEIPVKKGEGAEL
modifications: RED-tris-NTA fluorescent dye bound to the His tag
notes: Bought; also called human IGFBP7; not shown: His tag implied by the His-Tag Labeling Kit
B3: recombinant human CD93 protein (R&D Systems) (receptor)
chain: ADTEAVVCVGTACYTAHSGKLSAAEAQNHCNQNGGNLATVKSKEEAQHVQRVLAQLLRREAALTARMSKFWIGLQREKGKCLDPSLPLKGFSWVGGGEDTPYSNWHKELRNSCISKRCVSLLLDLSQPLLPSRLPKWSEGPCGSPGSPGSNIEGFVCKFSFKGMCRPLALGGPGQVTYTTPFQTTSSSLEAVPFASAANVACGEGDKDETQSHYFLCKEKAPDVFDWGSSGPLCVSPKYGCNFNNGGCHQDCFEGGDGSFLCGCRPGFRLLDDLVTCASRNPCSSSPCRGGATCVLGPHGKNYTCRCPQGYQLDSSQLDCVDVDECQDSPCAQECVNTPGGFRCECWVGYEPGGPGEGACQDVDECALGRSPCAQGCTNTDGSFHCSCEEGYVLAGEDGTQCQDVDECVGPGGPLCDSLCFNTQGSFHCGCLPGWVLAPNGVSCTMGPVSLGPPSGPPDEEDKGEKEGSTVPRAATASPTRGPEGTPKATPTTSRPSLSSDAPITSAPLKMLAPSGSPGVWREPSIHHATAASGPQEPAGGDSSVATQNNDGTDGQK
notes: Bought soluble protein

Key:
[1] = molecular target: T1, mouse CD93 on transfected HEK293T cells; assay: flow cytometry, mouse IGFBP7-Ig on mouse CD93-transduced or control HEK293T cells
[2] = molecular target: B3; assay: microscale thermophoresis: 10 nM labelled IGFBP7, CD93 titrated from 5.9 uM to 180 pM (FIG. 4E)
[3] = molecular target: B2; assay: microscale thermophoresis (MST), CD93 titrated against 10 nM labelled IGFBP7

Binder: B1
binding result [1]: binds

Binder: B2
Kd [2]: 53.1 nM

Binder: B3
EC50 (read off the curve) [3]: ~50 nM
